T1: Cre 24::CGRIR (in E. coli) (Enterobacteria phage P1, UniProt P06956 SEQ:1-348)
T1 chain: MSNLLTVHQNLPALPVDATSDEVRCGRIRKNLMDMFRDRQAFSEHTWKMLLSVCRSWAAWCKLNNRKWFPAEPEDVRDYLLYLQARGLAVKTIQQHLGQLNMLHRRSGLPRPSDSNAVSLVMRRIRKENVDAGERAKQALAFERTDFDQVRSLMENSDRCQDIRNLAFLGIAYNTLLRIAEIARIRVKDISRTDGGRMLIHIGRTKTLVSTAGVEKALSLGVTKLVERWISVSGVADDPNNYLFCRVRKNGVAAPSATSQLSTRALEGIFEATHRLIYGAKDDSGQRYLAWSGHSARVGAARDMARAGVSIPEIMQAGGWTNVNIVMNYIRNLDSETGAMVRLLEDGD

T2: Cre 280::CGRTG (in E. coli) (Enterobacteria phage P1, UniProt P06956 SEQ:1-348)
T2 chain: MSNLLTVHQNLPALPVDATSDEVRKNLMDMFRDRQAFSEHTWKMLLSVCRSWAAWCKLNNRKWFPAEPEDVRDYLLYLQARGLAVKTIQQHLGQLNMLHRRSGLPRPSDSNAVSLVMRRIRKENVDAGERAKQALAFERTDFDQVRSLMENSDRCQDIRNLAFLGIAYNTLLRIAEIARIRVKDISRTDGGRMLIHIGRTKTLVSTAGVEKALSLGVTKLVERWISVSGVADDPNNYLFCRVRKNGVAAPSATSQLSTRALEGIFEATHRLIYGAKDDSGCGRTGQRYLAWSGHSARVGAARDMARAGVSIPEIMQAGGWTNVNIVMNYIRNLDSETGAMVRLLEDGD

T3: Cre 18::CGRNA+P15L (in E. coli) (Enterobacteria phage P1, UniProt P06956 SEQ:1-348)
T3 chain: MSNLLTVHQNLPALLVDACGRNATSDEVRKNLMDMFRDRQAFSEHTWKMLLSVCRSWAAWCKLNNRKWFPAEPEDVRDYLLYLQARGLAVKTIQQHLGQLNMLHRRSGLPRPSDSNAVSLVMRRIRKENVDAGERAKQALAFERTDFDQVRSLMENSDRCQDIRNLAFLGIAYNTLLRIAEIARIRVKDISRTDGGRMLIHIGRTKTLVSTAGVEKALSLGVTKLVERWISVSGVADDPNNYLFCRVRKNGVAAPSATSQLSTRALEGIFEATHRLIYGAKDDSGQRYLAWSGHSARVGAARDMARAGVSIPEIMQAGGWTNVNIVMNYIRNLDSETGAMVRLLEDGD

T4: Cre 286::LRPHW (in E. coli) (Enterobacteria phage P1, UniProt P06956 SEQ:1-348)
T4 chain: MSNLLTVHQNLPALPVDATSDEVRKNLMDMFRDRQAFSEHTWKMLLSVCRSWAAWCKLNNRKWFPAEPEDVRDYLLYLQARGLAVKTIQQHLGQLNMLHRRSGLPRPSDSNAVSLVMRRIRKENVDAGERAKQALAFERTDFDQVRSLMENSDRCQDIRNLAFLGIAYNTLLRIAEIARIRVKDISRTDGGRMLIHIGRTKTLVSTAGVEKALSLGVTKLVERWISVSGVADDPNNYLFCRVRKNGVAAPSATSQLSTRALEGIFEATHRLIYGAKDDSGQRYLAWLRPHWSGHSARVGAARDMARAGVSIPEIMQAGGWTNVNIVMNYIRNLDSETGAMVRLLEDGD

T5: Cre 286::LRPHW (Enterobacteria phage P1, UniProt P06956 SEQ:1-348)
T5 chain: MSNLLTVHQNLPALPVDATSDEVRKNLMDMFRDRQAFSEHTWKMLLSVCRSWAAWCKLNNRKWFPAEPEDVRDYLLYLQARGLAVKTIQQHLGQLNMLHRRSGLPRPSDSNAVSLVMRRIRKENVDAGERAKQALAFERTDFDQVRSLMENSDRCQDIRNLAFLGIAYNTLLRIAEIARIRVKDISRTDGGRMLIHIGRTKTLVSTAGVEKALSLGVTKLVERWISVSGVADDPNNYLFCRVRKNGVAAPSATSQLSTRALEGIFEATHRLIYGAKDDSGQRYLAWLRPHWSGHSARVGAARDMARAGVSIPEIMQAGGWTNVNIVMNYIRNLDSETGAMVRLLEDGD

T6: Cre 18::CGRNA+P15L (Enterobacteria phage P1, UniProt P06956 SEQ:1-348)
T6 chain: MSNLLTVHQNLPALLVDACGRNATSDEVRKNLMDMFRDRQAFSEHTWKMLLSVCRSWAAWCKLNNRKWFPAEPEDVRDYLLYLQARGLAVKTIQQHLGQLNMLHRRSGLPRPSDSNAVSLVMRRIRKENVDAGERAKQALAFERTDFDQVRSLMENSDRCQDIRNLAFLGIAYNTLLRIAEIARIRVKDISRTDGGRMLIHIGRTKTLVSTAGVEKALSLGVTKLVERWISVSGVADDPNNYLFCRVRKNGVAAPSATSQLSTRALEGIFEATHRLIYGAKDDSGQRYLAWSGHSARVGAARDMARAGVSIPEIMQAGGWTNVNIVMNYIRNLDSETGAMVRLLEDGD

T7: Cre 24::CGRIR (Enterobacteria phage P1, UniProt P06956 SEQ:1-348)
T7 chain: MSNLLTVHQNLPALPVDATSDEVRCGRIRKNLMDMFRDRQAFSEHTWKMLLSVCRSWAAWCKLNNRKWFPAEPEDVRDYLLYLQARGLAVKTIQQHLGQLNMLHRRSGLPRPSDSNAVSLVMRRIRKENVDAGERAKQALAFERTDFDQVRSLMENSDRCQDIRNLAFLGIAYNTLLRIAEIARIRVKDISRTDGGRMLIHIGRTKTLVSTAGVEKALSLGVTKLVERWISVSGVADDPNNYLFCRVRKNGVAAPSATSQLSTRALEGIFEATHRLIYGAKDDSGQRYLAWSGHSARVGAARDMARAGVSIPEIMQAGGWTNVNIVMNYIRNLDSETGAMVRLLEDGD


Experiments:
[1] = molecular target: T1, Cre 24::CGRIR (in E. coli); assay: cell_activity; background 0.001%; settings: chain copies: 2
[2] = molecular target: T2, Cre 280::CGRTG (in E. coli); assay: cell_activity; background 0.001%; settings: chain copies: 2
[3] = molecular target: T3, Cre 18::CGRNA+P15L (in E. coli); assay: cell_activity; background 0.001%; settings: chain copies: 2
[4] = molecular target: T4, Cre 286::LRPHW (in E. coli); assay: cell_activity; background 0.001%; settings: chain copies: 2
[5] = molecular target: Cre wt (in E. coli) (Enterobacteria phage P1, UniProt P06956 SEQ:1-343); assay: cell_activity; background 0.001%; settings: chain copies: 2
[6] = molecular target: Cre wt (Enterobacteria phage P1, UniProt P06956 SEQ:1-343); assay: cleavage_in_vitro; reference for mutants; cleavage strongly reduced on intact lox+3; 30 nM Cre, 10 mM MgCl2, 37 C; settings: chain copies: 2 per lox site (stated); label: 5'-32P
Description: (§1) DNA cleavage reactions were in a 12 μl reaction volume containing Cre reaction buffer, 83 ng/μl BSA, 8.3 ng/μl calf thymus DNA, […] appropriate ³²P-labeled DNA substrate and 30 nM of Cre. Reactions were incubated at 37° C. for 1 hour, terminated by addition of 12 μl of 2×SDS-gels loading buffer (x: 40 mM Tris-HCl pH 6.8, 50 mM DTT, 1.0% SDS, 7.5% Glycerol, 0.01% Bromphenol Blue), heated at 95° C. for 5 minutes and then analyzed by 15% SDS-PAGE. Gels were quantified using a PhosphorImager (Molecular Dynamics, Sunnyvale, Calif.) scanner.
(§2) The ability of each mutant to catalyze cleavage at the lox⁺³ site on an unnicked 54 bp substrate was examined. Cleavage by Cre is easily detected as a slowly moving band on a polyacrylamide gel resulting from the formation of a protein-DNA complex in which the catalytic tyrosine of Cre is covalently linked to a 3′ phosphate of the labeled DNA substrate at the site of cleavage (FIG. 3).

[7] = molecular target: T5, Cre 286::LRPHW; assay: cleavage_in_vitro; covalent complex, top strand; 30 nM Cre; settings: chain copies: 2 per lox site (stated); label: 5'-32P
Description: as §1, §2

[8] = molecular target: T6, Cre 18::CGRNA+P15L; assay: as above; settings: chain copies: 2 per lox site (stated); label: 5'-32P
Description: as §1, §2

[9] = molecular target: T7, Cre 24::CGRIR; assay: as above; settings: chain copies: 2 per lox site (stated); label: 5'-32P
Description: as §1, §2

Binder	activity [1]	activity [2]	activity [3]	activity [4]	activity [5]	covalent cleavage complex formation [6] [fold vs wt Cre]	cleavage (covalent Cre-DNA complex) [7] [fold vs wt Cre]	cleavage (covalent Cre-DNA complex) [8] [fold vs wt Cre]	cleavage (covalent Cre-DNA complex) [9] [fold vs wt Cre]
lox+3 site (in plasmid or PCR fragment) (dsDNA) DNA 1: ACAACTTCGTATAATGATTTATGCTATACGAAGTTAT DNA 2: ATAACTTCGTATAGCATAAATCATTATACGAAGTTGT	94 % recombination (KnR)	61 % recombination (KnR)	56 % recombination (KnR)	92 % recombination (KnR)	0.1 % recombination (KnR)				
lox+3 cleavage oligonucleotide KC341 duplex (dsDNA) DNA 1: TCGAGTGCACAACTTCGTATAATGATTTATGCTATACGAAGTTATCATTCGCTAG DNA 2: CTAGCGAATGATAACTTCGTATAGCATAAATCATTATACGAAGTTGTGCACTCGA						1	4	20	4

— patent publication US20060014264, “Cre/lox system with lox sites having an extended spacer region” (Stowers Institute for Medical Research, published 2006)
